Target: T1, human VLA4-Fc (alpha4-Fc/beta1-Fc heterodimer) (human)
T1 construct: Soluble heterodimer from CHO cells, Protein A purified; also called VLA-Fc
Test: SPR (BIACORE), VLA4-Fc captured by anti-human IgG, 1 mM MnCl2, 1:1 Langmuir; standard BIACORE assay, first preparation (Table 5A); KD ratio relative to human 2D-VCAM-1
Description: The kinetic 2D-VCAM-1 assay measures binding kinetics of a dimeric ligand (e.g., VLA-Fc fusion protein or LPAM-1-Fc fusion protein) coated to sensor chips and monomeric analyte (e.g., 2D-VCAM-1 variant polypeptides) in the mobile phase. Goat anti-human IgG antibody (Jackson ImmunoResearch, Catalog No. 105-005-098) was immobilized on CM-5 sensor chips (GE Healthcare, Catalog No. BR-1000-14) according to the manufacturer's protocol. Antibody was diluted to 30 μg/ml in immobilization buffer (10 mM sodium acetate, pH 5.0 (GE Healthcare, Catalog No. BR-1003-51)). […] Un-reacted sites were quenched with 35 μl of 1 M ethanolamine-HCl pH 8.5 (GE Healthcare, Catalog No. BR-1000-50). This procedure typically yielded 15,000 response units (RU) of coupled antibody. VLA4-Fc or LPAM-1-Fc, prepared as described in Examples 3 and 4, respectively, were bound to antibody-coated sensor chips by injection of 20 μl of ligand solution (20 μg/ml protein in HBS-P-Mn buffer at a flow rate of 10 μl/min). Ligand capture levels were typically 200-300 RU. […] Typically, 8 dilutions of 2D-VCAM-1 variant polypeptides ranging from 150 nM to 0.069 nM were analyzed against a blank reference (HBS-P-Mn buffer alone).

T1 sequence (chain, as listed by the source limits assumed, form in doubt, chain 1 of 2): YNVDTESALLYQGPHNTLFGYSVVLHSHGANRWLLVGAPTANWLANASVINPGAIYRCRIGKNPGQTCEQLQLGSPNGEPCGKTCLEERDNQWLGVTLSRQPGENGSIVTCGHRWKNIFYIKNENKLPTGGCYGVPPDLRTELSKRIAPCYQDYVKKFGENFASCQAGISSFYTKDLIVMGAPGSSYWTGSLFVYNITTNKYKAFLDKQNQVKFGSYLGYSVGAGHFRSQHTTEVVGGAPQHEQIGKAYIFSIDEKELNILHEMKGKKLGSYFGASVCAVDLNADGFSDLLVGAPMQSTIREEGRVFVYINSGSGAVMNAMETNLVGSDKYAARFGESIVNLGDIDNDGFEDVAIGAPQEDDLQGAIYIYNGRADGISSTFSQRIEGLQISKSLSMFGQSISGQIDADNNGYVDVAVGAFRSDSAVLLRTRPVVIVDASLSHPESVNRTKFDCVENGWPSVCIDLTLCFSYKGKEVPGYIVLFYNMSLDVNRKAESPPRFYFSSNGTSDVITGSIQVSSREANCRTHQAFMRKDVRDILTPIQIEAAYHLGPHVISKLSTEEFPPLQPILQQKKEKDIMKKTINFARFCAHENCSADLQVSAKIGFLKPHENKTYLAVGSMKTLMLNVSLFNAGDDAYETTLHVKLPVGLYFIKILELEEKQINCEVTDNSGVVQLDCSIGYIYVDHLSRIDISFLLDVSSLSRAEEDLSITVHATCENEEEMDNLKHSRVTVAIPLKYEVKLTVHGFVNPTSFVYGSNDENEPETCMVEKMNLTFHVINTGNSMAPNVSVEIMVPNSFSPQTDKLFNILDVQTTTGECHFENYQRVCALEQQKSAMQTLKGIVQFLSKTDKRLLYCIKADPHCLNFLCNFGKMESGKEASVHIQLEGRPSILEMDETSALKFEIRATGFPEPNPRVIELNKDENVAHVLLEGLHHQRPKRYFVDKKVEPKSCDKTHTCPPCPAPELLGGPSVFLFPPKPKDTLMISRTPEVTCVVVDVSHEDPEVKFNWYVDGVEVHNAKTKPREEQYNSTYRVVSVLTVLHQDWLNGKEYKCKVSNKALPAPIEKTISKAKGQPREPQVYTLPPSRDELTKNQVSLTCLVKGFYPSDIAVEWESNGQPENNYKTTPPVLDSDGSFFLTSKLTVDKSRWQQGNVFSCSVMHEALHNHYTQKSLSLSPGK
T1 sequence (chain, as listed by the source limits assumed, form in doubt, chain 2 of 2): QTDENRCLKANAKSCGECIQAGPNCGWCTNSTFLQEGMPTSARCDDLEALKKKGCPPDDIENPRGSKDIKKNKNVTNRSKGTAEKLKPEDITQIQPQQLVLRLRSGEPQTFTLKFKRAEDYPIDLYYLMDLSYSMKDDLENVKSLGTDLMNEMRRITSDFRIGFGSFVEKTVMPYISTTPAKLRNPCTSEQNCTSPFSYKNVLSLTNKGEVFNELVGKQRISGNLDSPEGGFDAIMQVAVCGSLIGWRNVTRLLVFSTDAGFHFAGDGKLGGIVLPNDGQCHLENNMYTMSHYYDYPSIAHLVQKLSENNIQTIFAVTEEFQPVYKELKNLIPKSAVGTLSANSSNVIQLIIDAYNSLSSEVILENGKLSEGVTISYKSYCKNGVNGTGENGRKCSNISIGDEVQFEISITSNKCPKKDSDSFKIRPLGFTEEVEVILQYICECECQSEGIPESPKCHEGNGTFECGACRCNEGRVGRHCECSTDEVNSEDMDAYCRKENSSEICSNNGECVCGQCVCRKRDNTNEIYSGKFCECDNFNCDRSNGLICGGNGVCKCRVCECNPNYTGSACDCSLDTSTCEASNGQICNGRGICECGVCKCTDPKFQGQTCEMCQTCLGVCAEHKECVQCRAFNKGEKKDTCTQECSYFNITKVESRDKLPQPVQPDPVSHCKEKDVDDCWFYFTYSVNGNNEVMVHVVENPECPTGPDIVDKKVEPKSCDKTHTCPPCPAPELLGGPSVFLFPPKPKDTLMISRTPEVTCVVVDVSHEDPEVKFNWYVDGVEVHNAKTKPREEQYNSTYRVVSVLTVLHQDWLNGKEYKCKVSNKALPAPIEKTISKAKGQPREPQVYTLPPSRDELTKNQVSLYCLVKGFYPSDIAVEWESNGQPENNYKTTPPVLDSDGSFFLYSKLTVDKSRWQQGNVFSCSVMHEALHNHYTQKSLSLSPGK

binding affinity for VLA4-Fc relative to human 2D-VCAM-1: 306 fold
B1: 2D-VCAM-1 variant Clone 146 (ligand, not shown: small tags and cut ends)
chain: FKIETTPESRYLAQIGDSVSLTCSTTGCESPLFFWRPLLDSPLNGKVTNEGTTSTLTMNPVSFGNEHSYLCTARCESRSLEKGIQVEIYSFPKDPEIHLSGPLEAGKPITVKCSVADVYPFDRLEIDLLKGDHLMKSQEFLEDADRKSLETKSLEVTFTPVIEDIGKVLVCRAKLHIDEMDSVPTVRQAVKELQVYISP
